Key:
[1] = biological target: TD4, minimal TACC domain (TD) fragment of XTACC3 (Xenopus); experiment: SPR; TD4 (50 μg/ml) amine-coupled to a CM5 chip, peptides pCt or pCt_KD as analytes 10–250 μM; BIAcore X100, 20 °C, HBS (100 mM HEPES, 150 mM NaCl, 0.05% P20, pH 7.4); steady-state fit, single-site model
[2] = biological target: TD4, minimal TACC domain (TD) fragment of XTACC3 (Xenopus); experiment: ITC; TD4 (10–20 μM) in the cell, peptide (400–500 μM) in the syringe; 25 °C; 20 mM HEPES pH 7.5, 150 mM NaCl, 0.25 mM TCEP; one-site model
[3] = biological target: TD4, minimal TACC domain (TD) fragment of XTACC3 (Xenopus); experiment: SEC-MALS; TD4 with saturating concentrations of pCt; Superdex 200 10/300 GL, 20 mM Tris/HCl, 150 mM NaCl, 0.25 mM TCEP, pH 8.0

In the case of STNIDDLKKRLERIKS [pCt, synthetic peptide of XMAP-Ct residues 46-61], the Kd [1] is reported as 30 µM, the Kd [2] is reported as 11 µM and the stoichiometry N [2] is reported as 0.5 TD4:pCt. The stoichiometry N (pCt per TD4 dimer) [3] was 4.

Reference: publication PMC4200520
